The source of these data is patent US20160279215A1, “NOVEL PEPTIDES AND COMBINATION OF PEPTIDES FOR USE IN IMMUNOTHERAPY AGAINST VARIOUS TUMORS” (immatics biotechnologies GmbH, priority 2015, published 2016).

Test [1] addresses T1, HLA-A*02:01 (human).
T1 construct: MHC monomers captured on streptavidin plates; the UV-sensitive peptide is cleaved and exchanged with the test peptide; also called peptide-receptive MHC molecules; MHC class I
Kind of test: UV ligand-exchange ELISA (anti-b2m); +++ = exchange yield >=50. In outline:
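Peptide–HLA-A*02:01 complexes were generated by UV-ligand exchange, in which a UV-cleavable peptide is replaced by the test peptide. Exchange yield was quantified by ELISA on streptavidin-coated plates, detecting β2m of stabilized complexes with HRP anti-β2m (2 ug/ml) and TMB read at 450 nm.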
In general terms: ELISA stands for enzyme-linked immunosorbent assay.

For test [2], the target named is T1, HLA-A*02:01. In words: UV ligand-exchange ELISA (anti-b2m); ++ = exchange yield >=20%. An excerpt:
Candidate peptides for T cell based therapies according to the present invention were further tested for their MHC binding capacity (affinity). The individual peptide-MHC complexes were produced by UV-ligand exchange, where a UV-sensitive peptide is cleaved upon UV-irradiation, and exchanged with the peptide of interest as analyzed. Only peptide candidates that can effectively bind and stabilize the peptide-receptive MHC molecules prevent dissociation of the MHC complexes. To determine the yield of the exchange reaction, an ELISA was performed based on the detection of the light chain (β2m) of stabilized MHC complexes. The assay was performed as generally described in Rodenko et al. (Rodenko et al., 2006).
96 well MAXISorp plates (NUNC) were coated over night with 2 ug/ml streptavidin in PBS at room temperature, washed 4× and blocked for 1 h at 37° C. in 2% BSA containing blocking buffer. Refolded HLA-A*02:01/MLA-001 monomers served as standards, covering the range of 15-500 ng/ml. Peptide-MHC monomers of the UV-exchange reaction were diluted 100 fold in blocking buffer. Samples were incubated for 1 h at 37° C., washed four times, incubated with 2 ug/ml HRP conjugated anti-β2m for 1 h at 37° C., washed again and detected with TMB solution that is stopped with […]. Absorption was measured at 450 nm. Candidate peptides that show a high exchange yield (preferably higher than 50%, most preferred higher than 75%) are generally preferred for a generation and production of antibodies or fragments thereof, and/or T cell receptors or fragments thereof, as they show sufficient avidity to the MHC molecules and prevent dissociation of the MHC complexes.

As for KLLSLLEEA, the peptide exchange yield with HLA-A*02:01 [1] was 50 to 75%.

SLIEESEEL: the peptide exchange yield with HLA-A*02:01 [2] was 20 to 50%.

For FIANLPPELKA, the peptide exchange yield with HLA-A*02:01 [1] lay in the range of 50 to 75%.

In turn, FLDGRPLTL yielded a peptide exchange yield with HLA-A*02:01 [2] of 20 to 50%.

In the test with HLA-A*02:01 [2], NIDINNNEL displayed a peptide exchange yield of 20 to 50%.

In turn, ILQDGQFLV (also called DCAF4L2-001) yielded a peptide exchange yield with HLA-A*02:01 [2] of 20 to 50%.

In turn, ILAEEPIYIRV yielded a peptide exchange yield with HLA-A*02:01 [1] of 50 to 75%.

Consider FIAAVVEKV, for which the peptide exchange yield with HLA-A*02:01 [2] is 20 to 50%.

Consider ALADGIKSFLL, for which the peptide exchange yield with HLA-A*02:01 [1] was 50 to 75%.

In the case of ILGSFELQL, the peptide exchange yield with HLA-A*02:01 [1] was 50 to 75%.

The molecule QIQGQVSEV yielded a peptide exchange yield with HLA-A*02:01 [2] of 20 to 50%.

On to KLIDEDEPLFL, for which the peptide exchange yield with HLA-A*02:01 [1] was in the range of 50 to 75%.

GLEERLYTA gave a peptide exchange yield with HLA-A*02:01 [2] of 20 to 50%.

GLYPVTLVGV showed a peptide exchange yield with HLA-A*02:01 [1] of 50 to 75%.

In the test with HLA-A*02:01 [1], LLDPKTIFL (also called HAVCR1-001) yielded a peptide exchange yield of 50 to 75%.

For SLLEVNEASSV, the peptide exchange yield with HLA-A*02:01 [1] fell in the range of 50 to 75%.

Take ALLDGALQL: in the test with HLA-A*02:01 [1], the peptide exchange yield is 50 to 75%.

As to ALLQALMEL, the peptide exchange yield with HLA-A*02:01 [1] is 50 to 75%.

As for YLFSQGLQGL, the peptide exchange yield with HLA-A*02:01 [1] fell in the range of 50 to 75%.

FLIENLLAA came in with a peptide exchange yield in the test with HLA-A*02:01 [1] of 50 to 75%.

For FLFLKEVKV, the peptide exchange yield with HLA-A*02:01 [2] was 20 to 50%.

Consider ILHGEVNKV, for which the peptide exchange yield with HLA-A*02:01 [2] was 20 to 50%.

On to SLVENIHVL, for which the peptide exchange yield in the test with HLA-A*02:01 [1] is 50 to 75%.

GIINKLVTV showed a peptide exchange yield with HLA-A*02:01 [2] of 20 to 50%.

In the test with HLA-A*02:01 [2], LLLLDVPTA registered a peptide exchange yield of 20 to 50%.

As to SLAETIFIV (also called HTR3A-001), the peptide exchange yield in the test with HLA-A*02:01 [1] lay in the range of 50 to 75%.

In the test with HLA-A*02:01 [1], FTAEFLEKV showed a peptide exchange yield of 50 to 75%.

In the test with HLA-A*02:01 [2], ALYVQAPTV came in with a peptide exchange yield of 20 to 50%.

In turn, TLDSYLKAV (also called CYP4Z-001) yielded a peptide exchange yield with HLA-A*02:01 [2] of 20 to 50%.

Turning to AIIKEIQTV, the peptide exchange yield with HLA-A*02:01 [2] was 20 to 50%.

Molecule ALQSFEFRV returned a peptide exchange yield with HLA-A*02:01 [1] of 50 to 75%.

DISKRIQSL: in the test with HLA-A*02:01 [2], the peptide exchange yield lay within 20 to 50%.

With SLFSNIESV, in the test with HLA-A*02:01 [1], the peptide exchange yield was 50 to 75%.

On to YLDEVAFML, for which the peptide exchange yield in the test with HLA-A*02:01 [1] lay in the range of 50 to 75%.

With KMASKVTQV, the peptide exchange yield with HLA-A*02:01 [2] lay within 20 to 50%.

For the molecule KTASINQNV, the peptide exchange yield in the test with HLA-A*02:01 [2] is 20 to 50%.

With KLLPMVIQL, the peptide exchange yield with HLA-A*02:01 [1] lay within 50 to 75%.

Consider KLFEKSTGL, for which the peptide exchange yield with HLA-A*02:01 [1] fell in the range of 50 to 75%.

With LLDAAHASI, the peptide exchange yield with HLA-A*02:01 [2] lay within 20 to 50%.

In turn, KLIYKDLVSV gave a peptide exchange yield in the test with HLA-A*02:01 [2] of 20 to 50%.

In the case of LLLPLELSLA, the peptide exchange yield in the test with HLA-A*02:01 [1] is 50 to 75%.

The molecule ALYGNVQQV came in with a peptide exchange yield in the test with HLA-A*02:01 [1] of 50 to 75%.

For SILTNISEV, the peptide exchange yield with HLA-A*02:01 [2] lay within 20 to 50%.

On to NMADGQLHQV, for which the peptide exchange yield with HLA-A*02:01 [2] was in the range of 20 to 50%.

ALYPKEITL had a peptide exchange yield with HLA-A*02:01 [1] of 50 to 75%.

As for SLITGQDLLSV, the peptide exchange yield in the test with HLA-A*02:01 [1] was in the range of 50 to 75%.

QLIEKNWLL gave a peptide exchange yield in the test with HLA-A*02:01 [1] of 50 to 75%.

Turning to FVQEKIPEL, the peptide exchange yield with HLA-A*02:01 [1] lay within 50 to 75%.

In the test with HLA-A*02:01 [1], VLTGQVHEL returned a peptide exchange yield of 50 to 75%.

As for ALYSGDLHAA, the peptide exchange yield with HLA-A*02:01 [2] was 20 to 50%.

Take TLFGIQLTEA: the peptide exchange yield with HLA-A*02:01 [1] fell in the range of 50 to 75%.

In the test with HLA-A*02:01 [2], VVAAHLAGA came in with a peptide exchange yield of 20 to 50%.

QLMNLIRSV gave a peptide exchange yield in the test with HLA-A*02:01 [1] of 50 to 75%.

ALLSSVAEA returned a peptide exchange yield with HLA-A*02:01 [2] of 20 to 50%.

For the molecule SLYKSFLQL, in the test with HLA-A*02:01 [2], the peptide exchange yield fell in the range of 20 to 50%.

In the test with HLA-A*02:01 [2], TLLEGISRA (also called CABY-001) came in with a peptide exchange yield of 20 to 50%.

In the case of LLFPSDVQTL, the peptide exchange yield with HLA-A*02:01 [2] is 20 to 50%.

ALLLRLFTI: in the test with HLA-A*02:01 [2], the peptide exchange yield is 20 to 50%.
